Reference: publication PMC10920075 (Nature structural & molecular biology, 2023)

Molecular target: the molecule itself
Test: cryo-EM structure

B1: DNA polymerase γ accessory subunit PolγB (natural protein, human, UniProt Q9UHN1 26-485, looked up)
chain: DAGQPELLTERSSPKGGHVKSHAELEGNGEHPEAPGSGEGSEALLEICQRRHFLSGSKQQLSRDSLLSGCHPGFGPLGVELRKNLAAEWWTSVVVFREQVFPVDALHHKPGPLLPGDSAFRLVSAETLREILQDKELSKEQLVAFLENVLKTSGKLRENLLHGALEHYVNCLDLVNKRLPYGLAQIGVCFHPVFDTKQIRNGVKSIGEKTEASLVWFTPPRTSNQWLDFWLRHRLQWWRKFAMSPSNFSSSDCQDEEGRKGNKLYYNFPWGKELIETLWNLGDHELLHMYPGNVSKLHGRDGRKNVVPCVLSVNGDLDRGMLAYLYDSFQLTENSFTRKKNLHRKVLKLHPCLAPIKVALDVGRGPTLELRQVCQGLFNELLENGISVWPGYLETMQSSLEQLYSKYDEMSILFTVLVTETTLENGLIHLRSRDTTMKEMMHISKLKDFLIKYISSAKNV
- stoichiometry N: 2
